Experiment [1] concerns the target T1, biotinylated recombinant human IL-12Rβ2 (produced in-house) (human, UniProt Q99665 24-622, random biotinylated).
T1 construct: also called hIL-12RB2; hIL12RB2
T1 sequence: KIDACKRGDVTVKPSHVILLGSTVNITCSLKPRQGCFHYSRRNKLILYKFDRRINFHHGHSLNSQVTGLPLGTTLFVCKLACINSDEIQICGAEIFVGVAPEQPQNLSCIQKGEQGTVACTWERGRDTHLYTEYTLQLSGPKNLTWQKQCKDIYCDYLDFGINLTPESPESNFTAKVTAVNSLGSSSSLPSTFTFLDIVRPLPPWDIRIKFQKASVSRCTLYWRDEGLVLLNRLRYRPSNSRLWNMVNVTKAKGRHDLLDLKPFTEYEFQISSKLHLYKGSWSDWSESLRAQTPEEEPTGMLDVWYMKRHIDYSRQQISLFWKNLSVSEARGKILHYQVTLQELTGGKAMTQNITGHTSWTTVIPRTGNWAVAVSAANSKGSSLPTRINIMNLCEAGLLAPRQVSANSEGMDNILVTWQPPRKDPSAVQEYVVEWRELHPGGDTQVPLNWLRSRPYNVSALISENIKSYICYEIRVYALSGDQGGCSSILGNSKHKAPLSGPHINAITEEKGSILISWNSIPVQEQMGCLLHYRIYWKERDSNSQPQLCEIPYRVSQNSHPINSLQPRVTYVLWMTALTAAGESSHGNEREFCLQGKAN
The experiment in a line: ELISA, P.E. VHH on biotinylated hIL-12RB2, signal ratio to control well. A general note: ELISA stands for enzyme-linked immunosorbent assay.

Experiment [2] has as its target T2, biotinylated recombinant mouse IL-12Rβ2 (produced in-house) (mouse, UniProt P97378 24-637, random biotinylated).
T2 construct: also called mIL-12RB2; mIL12RB2
T2 sequence: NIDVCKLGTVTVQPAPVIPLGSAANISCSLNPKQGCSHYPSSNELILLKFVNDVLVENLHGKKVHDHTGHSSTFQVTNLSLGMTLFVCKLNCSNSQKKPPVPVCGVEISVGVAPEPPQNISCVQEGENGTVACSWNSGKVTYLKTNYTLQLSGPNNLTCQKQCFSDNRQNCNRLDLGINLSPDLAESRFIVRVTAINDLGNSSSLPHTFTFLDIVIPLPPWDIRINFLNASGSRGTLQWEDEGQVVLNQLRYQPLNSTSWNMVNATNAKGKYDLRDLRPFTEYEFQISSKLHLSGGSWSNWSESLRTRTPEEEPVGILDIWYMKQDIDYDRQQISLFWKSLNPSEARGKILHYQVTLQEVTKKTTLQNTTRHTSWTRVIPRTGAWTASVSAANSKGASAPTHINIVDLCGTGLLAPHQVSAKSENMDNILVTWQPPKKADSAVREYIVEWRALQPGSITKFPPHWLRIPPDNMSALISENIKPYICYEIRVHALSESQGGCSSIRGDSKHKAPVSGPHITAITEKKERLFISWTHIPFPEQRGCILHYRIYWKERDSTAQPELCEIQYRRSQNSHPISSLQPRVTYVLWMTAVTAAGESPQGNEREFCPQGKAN
The experiment in a line: ELISA, P.E. VHH on biotinylated mIL-12RB2.

The target of experiment [3] is T1, biotinylated recombinant human IL-12Rβ2 …. The experiment can be described thus: BLI (Octet), P.E. VHH on immobilised biotinylated hIL-12RB2.
The target of experiment [4] is T2, biotinylated recombinant mouse IL-12Rβ2 …. The experiment in a line: ELISA, P.E. VHH on biotinylated mIL-12RB2, signal ratio to control well.
Experiment [5] has as its target T1, biotinylated recombinant human IL-12Rβ2 …. The experiment can be described thus: BLI (Octet), P.E. VHH on immobilised biotinylated hIL-12RB2, 1:1 model. On the technique in general: Biolayer interferometry detects binding as a change in optical thickness at a sensor tip.
Experiment [6] concerns the target T3, human IL-12Rβ2 expressed on cells (human, UniProt Q99665 24-862).
T3 construct: HEK293T cells transiently transfected with a human IL-12Rβ2 plasmid (Genscript OHu21785); also called hIL-12RB2
T3 sequence: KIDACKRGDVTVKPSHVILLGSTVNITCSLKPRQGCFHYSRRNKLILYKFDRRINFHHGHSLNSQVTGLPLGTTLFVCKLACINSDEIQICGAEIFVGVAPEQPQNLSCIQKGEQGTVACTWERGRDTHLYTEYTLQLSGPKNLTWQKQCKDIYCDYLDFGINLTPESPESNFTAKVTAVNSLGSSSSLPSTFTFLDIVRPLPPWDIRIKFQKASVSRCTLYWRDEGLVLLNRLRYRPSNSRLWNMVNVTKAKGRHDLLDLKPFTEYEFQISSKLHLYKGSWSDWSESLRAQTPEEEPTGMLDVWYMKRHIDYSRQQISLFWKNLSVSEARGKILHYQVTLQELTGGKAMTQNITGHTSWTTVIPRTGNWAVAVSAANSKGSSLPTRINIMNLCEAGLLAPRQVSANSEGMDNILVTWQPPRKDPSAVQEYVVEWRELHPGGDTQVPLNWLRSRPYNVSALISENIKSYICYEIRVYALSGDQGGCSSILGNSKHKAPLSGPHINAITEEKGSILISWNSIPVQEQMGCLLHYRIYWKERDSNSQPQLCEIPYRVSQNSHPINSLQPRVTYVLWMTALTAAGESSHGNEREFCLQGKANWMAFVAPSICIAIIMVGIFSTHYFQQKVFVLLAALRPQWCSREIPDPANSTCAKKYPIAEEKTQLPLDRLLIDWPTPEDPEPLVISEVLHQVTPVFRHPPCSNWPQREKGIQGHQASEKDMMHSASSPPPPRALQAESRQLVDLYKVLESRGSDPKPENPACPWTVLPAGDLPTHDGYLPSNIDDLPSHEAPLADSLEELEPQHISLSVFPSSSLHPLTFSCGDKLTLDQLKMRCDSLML
The experiment can be described thus: flow cytometry, P.E. VHH on HEK293T cells transiently expressing hIL-12RB2. On the technique in general: Flow cytometry measures light scatter and fluorescence of single cells or particles in a stream.

The target in experiment [7] is T4, biotinylated recombinant human IL-12Rβ2 (human, UniProt Q99665 24-622, random biotinylated).
T4 construct: Recombinant protein produced in-house, biotinylated; also called hIL-12RB2; human IL-12RB2
T4 sequence: T1 sequence
The experiment in a line: ELISA, periplasmic extract on biotinylated hIL-12Rβ2, signal over control wells.

Experiment [8] addresses T5, biotinylated recombinant mouse IL-12Rβ2 (mouse, UniProt P97378 24-637, random biotinylated).
T5 construct: Recombinant protein produced in-house, biotinylated; also called mIL-12RB2; mouse IL-12RB2
T5 sequence: T2 sequence
The experiment in a line: BLI (Octet), periplasmic extract on biotinylated mIL-12Rβ2 on streptavidin tips.

Experiment [9] has as its target T5, biotinylated recombinant mouse IL-12Rβ2. The experiment in a line: ELISA, periplasmic extract on biotinylated mIL-12Rβ2, signal over control wells.
For experiment [10] the target is unchanged. The experiment in a line: BLI (Octet), periplasmic extract on biotinylated mIL-12Rβ2 on streptavidin tips, 1:1 model.
For experiment [11], the target named is T4, biotinylated recombinant human IL-12Rβ2. The experiment can be described thus: BLI (Octet), periplasmic extract on biotinylated hIL-12Rβ2 on streptavidin tips, 1:1 model.
Experiment [12] has the same target. The experiment in a line: BLI (Octet), periplasmic extract on biotinylated hIL-12Rβ2 on streptavidin tips.

B1: anti-IL-12Rβ2 VHH clone 3CAHS102 (VHH, not shown: small tags and cut ends)
VHH: QVQLQESGGGLVQPGGSLRLSCAASGSILRINLMGWYRQVPGKQRELVAEMSTGGSTTYVDSVEGRFTISRDNAKNTVYLQMNSLKPEDTAVYYCNAKAWQLGRLENDDWGQGTQVTVSS
notes: tested as periplasmic extract
On to B1, for which the “ELISA hIL12RB2/control” value in [1] was determined as 3.54. For the same molecule, the binding result in [2] is given as “no binding”. In addition, in [3], the Response amounted to 0.323. In addition, the “ELISA mIL12RB2/control” value in experiment [4] stood at 1.02. In addition, the koff in experiment [5] was determined as 0.00267 s⁻¹. This molecule also had a dMFI in experiment [6] of 994.

B2: anti-IL-12Rβ2 VHH clone 3CAHS171 (VHH, not shown: small tags and cut ends)
VHH: QVQLQESGGGLVQPGGSLRLTCVASGFPFSTHAMSWVRQPPGKGREWISAINSGGDSTDYADSVMGRFTISRDNAKNTVYLQMNSLKSEDTAAYYCAKYEDCSDYDCSSRASWGQGTQVTVSS
notes: tested as periplasmic extract; also called 3CANS171
For the molecule B2, the “ELISA hIL12RB2/control” value in experiment [1] is 3.27. The binding result in [2] is “no binding”. Further, the Response in [3] turned out to be 0.195. The “ELISA mIL12RB2/control” value in experiment [4] came out at 0.96. Moreover, the off-rate (koff) in experiment [5] is 0.00431 s⁻¹. This molecule had a dMFI in experiment [6] of 1180.

B3: anti-IL-12Rβ2 VHH clone 3CRH25 (VHH, not shown: small tags and cut ends)
VHH: QVQLQESGGGLVQAGDSLRLSCTASGHTFSRYTTIGWFRQAPGKDREFVAAIRWSGDITDYADAVKGRFTISRDNVKNTVYLQMNSLNPEDTAVYYCARGYSEYGVLSRNRGLYAYWGQGTQVTVSS
notes: tested as periplasmic extract
Regarding B3, the “ELISA hIL12RB2/control” value in experiment [1] is 5.16. Moreover, the binding result in experiment [2] is on record as “no binding”. In addition, in experiment [3], the Response was 0.523. In [4], the “ELISA mIL12RB2/control” value was found to be 1.04. For the same molecule, the dissociation rate constant (koff) in experiment [5] turned out to be 0.00205 s⁻¹. Further, the dMFI in [6] was found to be 520.

B4: anti-IL-12Rβ2 VHH clone 3CRHS163 (VHH, not shown: small tags and cut ends)
VHH: QVQLQESGGGLVQPGGSLRLSCTASGFAFSTYWMYWIRQSPEKGFEWVSVVNTGGDITYYADSVKGRFTISRDNAKNTLYLQMNSLKPEDTALYYCARDRTTMSYTRTYYRGGQGTQVTVSS
notes: tested as periplasmic extract
Take B4: in experiment [1], the “ELISA hIL12RB2/control” value is 3.58. In [2], the binding result was “no binding”. The Response in [3] is 0.339. Further, in experiment [4], the “ELISA mIL12RB2/control” value was 0.93. Further, the koff in experiment [5] is 0.00302 s⁻¹. Moreover, the dMFI in experiment [6] stood at 1050.

B5: anti-IL-12Rβ2 VHH clone 2CRH82 (VHH, not shown: small tags and cut ends)
VHH: QVQLQESGGGLVQAGGSLRLSCAASARTESMYAMAWFRQAPGKEREIVAGIIQSGGTTYISDYMKGRFSIDRGNAENTVYLQMDSLKPEDTAVYSCAAKVSSGTPSDIQISQSRWYDHWGQGTQVTVSS
notes: tested as periplasmic extract
With B5, the “ELISA hIL12RB2/control” value in experiment [1] came to 16.1. The binding result in experiment [2] is recorded as “no binding”. Also, the Response in experiment [3] amounted to 0.426. Also, the “ELISA mIL12RB2/control” value in experiment [4] came to 1.77. For the same molecule, the koff in [5] turned out to be 0.00274 s⁻¹. The molecule also showed a dMFI in experiment [6] of 744.

B6: anti-IL-12Rβ2 VHH clone 3CAHS41 (VHH, not shown: small tags and cut ends)
VHH: QVQLQESGGGLVQAGDSLRLSCAASGRTFDTYIVGWFRQAPGKEREFVSALSWSDDTTIRDDSLRGRFTISRDNAKNTVYLLMNSLKPEDTAVYYCAAKAKPPAATWSSYRNREWYDYWGQGTQVTVSS
notes: tested as periplasmic extract
As to B6, the “ELISA hIL12RB2/control” value in [1] was 8.77. For the same molecule, in experiment [2], the binding result is reported as “no binding”. In addition, in experiment [3], the Response turned out to be 0.609. Moreover, the “ELISA mIL12RB2/control” value in [4] is 1.35. The koff in [5] was determined as 0.00441 s⁻¹. In experiment [6], the dMFI is 971.

B7: anti-IL-12Rβ2 VHH clone 3CAHS142 (VHH, not shown: small tags and cut ends)
VHH: QVQLQESGGGLVQAGESLTLSCIASGVIKDYAMGWFRQAPGKEREFVAAISWSGVSIYYADSVKGRFTISRDNAKNTVYLQMNSLEPEDTAVYYCAGTEGAYTVAGGSTFGYDMDYWGKGTQVTVSS
notes: tested as periplasmic extract
Take B7: the “ELISA hIL12RB2/control” value in experiment [1] turned out to be 4.98. Moreover, the binding result in [2] was “no binding”. Besides, the Response in experiment [3] amounted to 0.352. The “ELISA mIL12RB2/control” value in [4] amounted to 1.07. Moreover, the koff in [5] was found to be 0.00324 s⁻¹. This molecule also came in with a dMFI in experiment [6] of 812.

B8: anti-IL-12Rβ2 VHH clone 3CRHS106 (VHH, not shown: small tags and cut ends)
VHH: QVQLQESGGGLVQPGGSLRLSCKASGFTFSTYAMSWVRQAPGKGLEWVSAVNSGGLSTDYADSVEGRFTISRDDAKNMLFLQMNSLKPEDTARYYCAKYEDCSDYMCHRDRAGYWGQGTQVTVSS
notes: tested as periplasmic extract
Take B8: the “ELISA hIL12RB2/control” value in experiment [1] came out at 10.2. For the same molecule, the binding result in experiment [2] is listed as “no binding”. For the same molecule, the Response in experiment [3] was 0.297. In [4], the “ELISA mIL12RB2/control” value was 1.03. The koff in experiment [5] came to 0.00355 s⁻¹. For the same molecule, the dMFI in [6] was found to be 1010.

B9: anti-IL-12Rβ2 VHH clone 21058 (VHH, not shown: small tags and cut ends)
VHH: QVQLQESGGGLVQAGGSLRLSCAASGRTFSNYAMAWFRQAPGTEREFVAGLSGSGGDTAFYDNSVMGRFTISRDSAKNTMWLQINNLKPEDTAVYYCAAATHVVVSYGLVRRRGTYDYWGQGTQVTVSS
notes: tested as periplasmic extract; also called 3CRHM49
Take B9: the “ELISA binding hIL-12RB2/control” value in experiment [7] came to 3.2 ratio. The Response was 1.15 in experiment [8] and 1.54 in [12]. For the same molecule, in [9], the “ELISA binding mIL-12RB2/control” value was 41.2 ratio. Also, the off-rate constant (koff) amounted to 0.00583 s⁻¹ in [10] and 0.00619 s⁻¹ in experiment [11].

The term koff denotes the rate constant with which the complex falls apart.

The record behind these values is US20260209362A1 (VIB VZW, published 2026).
